Here are results for 1 molecule from patent US20230295338A1 (YMMUNOBIO, published 2023).

The target in one test is T1, human CEACAM1 (human, UniProt P13688 35-526).
T1 construct: Expressed on CHO transfectants; also called huCEACAM1; CHO-CEACAM1
T1 sequence: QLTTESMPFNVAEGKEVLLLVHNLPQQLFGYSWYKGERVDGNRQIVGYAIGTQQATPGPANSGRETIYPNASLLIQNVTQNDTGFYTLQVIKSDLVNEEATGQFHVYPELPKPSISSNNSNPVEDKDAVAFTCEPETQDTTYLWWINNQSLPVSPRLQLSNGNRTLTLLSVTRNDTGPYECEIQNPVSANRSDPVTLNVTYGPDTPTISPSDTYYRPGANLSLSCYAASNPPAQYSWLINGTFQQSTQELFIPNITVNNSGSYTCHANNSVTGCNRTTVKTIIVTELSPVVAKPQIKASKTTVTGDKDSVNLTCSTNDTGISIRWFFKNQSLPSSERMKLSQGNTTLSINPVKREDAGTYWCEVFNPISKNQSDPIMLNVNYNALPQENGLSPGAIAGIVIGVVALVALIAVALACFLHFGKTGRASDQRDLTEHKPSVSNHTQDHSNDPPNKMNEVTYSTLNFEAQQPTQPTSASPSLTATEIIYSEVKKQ
Briefly: flow cytometry on CHO transfectants. For orientation: Flow cytometry measures light scatter and fluorescence of single cells or particles in a stream.

A further test addresses T2, human CEACAM3 (human, UniProt P40198 35-252).
T2 construct: whole, on cells; also called huCEACAM3; CHO transfectants expressing human CEACAM3
T2 sequence (looked up): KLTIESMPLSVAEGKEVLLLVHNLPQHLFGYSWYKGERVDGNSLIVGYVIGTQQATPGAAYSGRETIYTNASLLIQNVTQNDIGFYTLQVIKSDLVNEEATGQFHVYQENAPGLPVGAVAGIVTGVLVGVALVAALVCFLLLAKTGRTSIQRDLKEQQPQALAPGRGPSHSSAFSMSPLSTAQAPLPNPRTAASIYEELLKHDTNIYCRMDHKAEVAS
Briefly: flow cytometry on CHO transfectants.

A further test addresses T3, CEACAM1-dN-Fc (human, UniProt P13688 143-428, limits assumed).
T3 construct: Human CEACAM1 extracellular part without the N domain, fused to Fc; also called CEACAM1 variant lacking the N domain; not shown: human IgG Fc
The test can be described thus: solid phase ELISA, CEACAM-Fc coated (FIG. 19). (In an ELISA, binding on a coated surface is turned into a signal by an enzyme label.)

Test [1] addresses T4, peptide P-Q-Q-L-F-G-Y-S-W-Y (human).
T4 construct: coated on the ELISA plate
T4 peptide: PQQLFGYSWY
Briefly: solid phase peptide ELISA, mAb 5 µg/ml (FIG. 20).
Method: After three times washing with PBS, samples were incubated with goat anti mouse-HRP (Jackson ImmunoResearch, 1:10.000 dilution in 1% BSA/PBS, 100 µl/well). Then plates were washed three times with PBS, developed with 100 µl TMB substrate, blocked with 100 µl 0.2 M H2SO4 and measured by the TECAN-ELISA reader sunrise at 450 nm. Samples were run in triplicates. Results shown are representative for three independent repeats.

Test [2] addresses T5, human CEACAM1-Fc fusion protein (human, UniProt P13688 35-428).
T5 construct: Said to comprise the entire extracellular domain of human CEACAM1; also called CEACAM1-huFc; recombinant CEACAM1-Fc; not shown: human IgG Fc (huFc)
T5 sequence: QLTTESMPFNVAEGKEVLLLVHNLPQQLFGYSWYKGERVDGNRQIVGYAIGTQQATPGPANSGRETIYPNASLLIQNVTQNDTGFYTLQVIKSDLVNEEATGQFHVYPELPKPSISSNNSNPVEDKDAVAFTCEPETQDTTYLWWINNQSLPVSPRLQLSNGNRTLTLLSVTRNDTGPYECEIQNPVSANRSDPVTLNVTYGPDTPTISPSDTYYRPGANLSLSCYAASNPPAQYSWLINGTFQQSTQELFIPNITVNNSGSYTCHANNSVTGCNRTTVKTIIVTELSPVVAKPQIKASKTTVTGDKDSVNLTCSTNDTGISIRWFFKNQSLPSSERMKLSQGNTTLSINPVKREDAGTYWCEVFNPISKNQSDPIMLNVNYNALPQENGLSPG
The test can be described thus: solid phase ELISA, CEACAM-Fc coated, mAb 5 µg/ml (FIG. 19).

Another test has as its target T6, human CEACAM3-Fc (human, UniProt P40198 35-155, limits assumed).
T6 construct: also called recombinant CEACAM-Fc protein; not shown: human IgG Fc
T6 sequence (looked up): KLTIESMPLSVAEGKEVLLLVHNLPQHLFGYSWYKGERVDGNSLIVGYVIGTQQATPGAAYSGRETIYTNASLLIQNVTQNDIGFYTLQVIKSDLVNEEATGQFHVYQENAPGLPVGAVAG
Described as above.

The next test addresses T7, human CEACAM5-Fc (human, UniProt P06731 35-685, limits assumed).
T7 construct: also called recombinant CEACAM-Fc protein; not shown: human IgG Fc
T7 sequence (looked up): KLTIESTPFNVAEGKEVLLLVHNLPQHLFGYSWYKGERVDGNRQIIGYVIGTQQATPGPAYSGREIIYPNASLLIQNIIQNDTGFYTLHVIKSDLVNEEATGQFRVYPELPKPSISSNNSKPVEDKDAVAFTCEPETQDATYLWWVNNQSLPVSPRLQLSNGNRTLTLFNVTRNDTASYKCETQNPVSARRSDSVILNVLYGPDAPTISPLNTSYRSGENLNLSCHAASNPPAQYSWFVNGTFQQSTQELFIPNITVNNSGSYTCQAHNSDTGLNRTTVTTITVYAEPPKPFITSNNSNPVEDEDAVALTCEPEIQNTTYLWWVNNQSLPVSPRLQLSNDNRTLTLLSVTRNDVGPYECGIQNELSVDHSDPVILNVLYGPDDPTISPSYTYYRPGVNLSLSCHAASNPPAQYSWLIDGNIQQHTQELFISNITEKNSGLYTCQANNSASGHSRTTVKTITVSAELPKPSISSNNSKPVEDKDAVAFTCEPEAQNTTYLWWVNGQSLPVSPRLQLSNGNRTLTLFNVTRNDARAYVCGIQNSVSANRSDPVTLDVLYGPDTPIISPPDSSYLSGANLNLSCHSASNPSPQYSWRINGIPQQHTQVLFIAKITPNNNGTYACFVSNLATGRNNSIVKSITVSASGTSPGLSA
The test is described as above.

A further test concerns the target T8, human CEACAM8-Fc (human, UniProt P31997 35-320, limits assumed).
T8 construct: also called recombinant CEACAM-Fc protein; not shown: human IgG Fc
T8 sequence (looked up): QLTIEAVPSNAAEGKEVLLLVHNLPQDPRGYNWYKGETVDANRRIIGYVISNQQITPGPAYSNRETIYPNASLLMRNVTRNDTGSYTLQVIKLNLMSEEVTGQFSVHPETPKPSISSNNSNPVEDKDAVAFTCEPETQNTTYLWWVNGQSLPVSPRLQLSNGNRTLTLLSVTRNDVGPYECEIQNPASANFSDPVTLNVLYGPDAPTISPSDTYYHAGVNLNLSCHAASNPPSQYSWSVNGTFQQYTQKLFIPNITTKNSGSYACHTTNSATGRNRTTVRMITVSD
The test can be described thus: sandwich ELISA, CC1/3/5-Sab coated, CEACAM-Fc proteins in solution.

A further test addresses T9, human CEACAM6-Fc (human, UniProt P40199 35-320, limits assumed).
T9 construct: also called recombinant CEACAM-Fc protein; not shown: human IgG Fc
T9 sequence (looked up): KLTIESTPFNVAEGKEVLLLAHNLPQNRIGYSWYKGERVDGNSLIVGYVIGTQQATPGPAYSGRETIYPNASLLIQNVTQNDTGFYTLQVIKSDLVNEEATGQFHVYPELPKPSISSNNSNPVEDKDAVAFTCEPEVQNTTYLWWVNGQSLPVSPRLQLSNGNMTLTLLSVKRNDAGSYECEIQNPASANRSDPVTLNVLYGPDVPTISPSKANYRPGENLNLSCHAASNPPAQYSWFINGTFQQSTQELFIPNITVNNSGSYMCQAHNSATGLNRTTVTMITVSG
Described as above.

Method for human CEACAM3-Fc: (§1) After three times washing with PBS, samples were incubated with goat anti mouse-HRP (Jackson ImmunoResearch, 1:10.000 dilution in 1% BSA/PBS, 100 µl/well). To detect proper loading of the Fc proteins samples were also detected by HRP coupled goat anti human Fc antibody (Jackson ImmunoResearch, 1:10.000 dilution in 1% BSA/PBS, 100 µl/well). Then plates were washed three times with PBS, developed with 100 µl TMB substrate, blocked with 100 µl 0.2 M H2SO4 and measured by the TECAN-ELISA reader sunrise at 450 nm. Samples were run in triplicates. Results shown are representative for three independent repeats.
Method for human CEACAM5-Fc: as §1
Method for human CEACAM6-Fc: (§2) After blocking remaining binding sites with BSA, indicated CEACAM-Fc proteins were incubated. For detection, the HRP-coupled goat anti human Fc antibody was utilized. After washing, TMB substrate was added. The enzymatic reaction was stopped by sulfuric acid and measured in a Tecan Sunrise ELISA plate reader at 450 nm. Data are representative of three independent experiments.
(§3) After blocking remaining binding sites with 1% BSA/PBS, indicated CEACAM-Fc proteins (0.1 µg/ml diluted in 1% BSA/PBS) were incubated for 2 h at RT. For detection, 100 µl HRP-coupled goat anti human Fc antibody diluted 1:10.000 in 1% BSA/PBS was utilized. After washing, TMB substrate was added. The enzymatic reaction was stopped by sulfuric acid and measured in a Tecan Sunrise ELISA plate reader at 450 nm. Assays were performed in triplicates and data shown are representative of three independent experiments.
Method for human CEACAM8-Fc: as §2, §3

B1: CC1/3/5-Sab (antibody, V domains shown)
VH: EVQLQQSGPELVKPGTSVKMSCKASGYTFTTYVMHWVQQKPGQGLDWIGFFNPYNDGTKYNEKFKGKATLTSDKSSSTAYMELSSLTSEDSAVYYCARWAYDGSYAYWGQGTTLTVSS
VL: DIQMTQSSSYLSVFLGGRVTITCKASDHINNWLAWYQQKPGNAPRLLISGATSLETGVPSRFSGSGSGKDYTLSIISLQTEDVATYYCQQYWRTPFTFGSGTKLEIK
notes: also called mAb CC1/3/5-Sab; CC1/3/4-Sab
In the case of B1, the binding result with human CEACAM1 is given as “binds”; with human CEACAM3, “binds”; with CEACAM1-dN-Fc, “no binding (tested: 5 µg/ml)”; in test [1] it was “binds”; in [2], “binds”; in the test with human CEACAM3-Fc, “binds”. The figures for the binding result with human CEACAM5-Fc, in the test with human CEACAM8-Fc and with human CEACAM6-Fc were “binds”, “no binding (tested: 0.1 µg/ml CEACAM-Fc)” and “no binding (tested: 0.1 µg/ml CEACAM-Fc)”, respectively.
